Assay results taken from US20130251703A1 (Novartis, published 2013).

Experiments:
[1] = molecular target: T1, human HER3 endogenously expressed on human cancer cells (SK-Br-3, BT-474, MCF7) (human, UniProt P21860 20-1342); experiment: cell-based or functional assay
[2] = molecular target: T2, Mu HER3: CD33-[Murine HER3, residues 20-643]-TAG (mouse, UniProt Q61526 20-643); experiment: solution equilibrium titration (SET), IgG, ECL read-out
T2 construct: also called mu HER3-Tag; not shown: C-terminal TAG (e.g. FLAG TAG)

[3] = molecular target: T3, Cyno HER3: CD33-[Cyno HER3, residues 20-643]-TAG (cynomolgus monkey, UniProt G7PIG5 20-643); experiment: as above
T3 construct: also called cy HER3-Tag; not shown: C-terminal TAG (e.g. FLAG TAG)

[4] = molecular target: T4, Hu HER3: CD33-[Human HER3, residues 20-640]-TAG (human, UniProt P21860 20-640); experiment: as above
T4 construct: also called hu HER3-Tag; HER3-Tag; not shown: C-terminal TAG (e.g. FLAG TAG)

[5] = molecular target: T1, human HER3 endogenously expressed on …; experiment: cell-based or functional assay; remark: listed apart in the source
[6] = molecular target: T1, human HER3 endogenously expressed on …; experiment: cell-based or functional assay; remark: listed apart in the source
[7] = molecular target: T5, Rat HER3: CD33-[Rat HER3, residues 20-643]-TAG (rat, UniProt Q62799 20-643); experiment: solution equilibrium titration (SET), IgG, ECL read-out
T5 construct: also called ra HER3-Tag; not shown: C-terminal TAG (e.g. FLAG TAG)

| Binder | BT474 pHER3 % inhibition [1] [%] | BT474 pHER3 IC50 [1] [pM] | MCF7 pHER3 % inhibition [1] [%] | MCF7 pHER3 IC50 [1] [pM] | SK-Br-3 pHER3 % inhibition [1] [%] | SK-Br-3 pHER3 IC50 [1] [pM] | Kd [2] [nM] | Kd [3] [nM] | Kd [4] [nM] | MCF7 proliferation % inhibition [5] [%] | MCF7 proliferation IC50 [5] [nM] | SK-Br-3 proliferation % inhibition [5] [%] | SK-Br-3 proliferation IC50 [5] [nM] | BT-474 pAkt % inhibition [6] [%] | MCF7 pAkt % inhibition [6] [%] | MCF7 pAkt IC50 [6] [pM] | SK-Br-3 pAkt % inhibition [6] [%] | SK-Br-3 pAkt IC50 [6] [pM] | BT-474 proliferation % inhibition [5] [%] | BT-474 proliferation IC50 [5] [nM] | other results |
| --- | --- | --- | --- | --- | --- | --- | --- | --- | --- | --- | --- | --- | --- | --- | --- | --- | --- | --- | --- | --- | --- |
| MOR12514 (antibody, human IgG1, lambda, V domains shown, Tested as IgG) VH: QVQLVQSGAEVKKPGASVKVSCKASGYTFTSYDIHWVRQAPGQGLEWMGRIDPYSGNTNYAQKFQGRVTMTRDTSISTAYMELSRLRSEDTAVYYCARGSFYTRDSYFDVWGQGTLVTVSS VL: DIALTQPASVSGSPGQSITISCTGTSSDVGTYNQVSWYQQHPGKAPKLMIYGVSKRPSGVSNRFSGSKSGNTASLTISGLQAEDEADYYCQVRDMSLFDVFGGGTKLTVLG | 70 | 707 | 67 | 435 | 77 | 223 | 2.4 | 1.4 | 0.97 | 29 | 0.317 | 36 | 0.044 | – | – | – | – | – | – | – | – |
| MOR12516 (antibody, human IgG1, lambda, V domains shown, Tested as IgG) VH: QVQLVQSGAEVKKPGASVKVSCKASGYTFTSYDIHWVRQAPGQGLEWMGRIDPYSGNTNYAQKFQGRVTMTRDTSISTAYMELSRLRSEDTAVYYCARGSFYTRDSYFDVWGQGTLVTVSS VL: DIALTQPASVSGSPGQSITISCTGTSSDVGTYNQVSWYQQHPGKAPKLMIYGVSKRPSGVSNRFSGSKSGNTASLTISGLQAEDEADYYCQSRDTYRPVKVFGGGTKLTVLG | 63 | – | 62 | 590 | 74 | 1870 | 3.9 | 3.6 | 1.8 | 34 | 0.492 | 34 | 2.08 | – | – | – | – | – | – | – | – |
| MOR13655 (antibody, human IgG1, lambda, V domains shown, Tested as IgG) VH: QVQLVQSGAEVKKPGASVKVSCKASGYTFTSYDIHWVRQAPGQGLEWMGRIDPYSGNTNYAQKFQGRVTMTRDTSISTAYMELSRLRSEDTAVYYCARGSFYTRDSYFDVWGQGTLVTVSS VL: DIALTQPASVSGSPGQSITISCTGTSSDVGTYNQVSWYQQHPGKAPKLMIYGVSKRPSGVSNRFSGSKSGNTASLTISGLQAEDEADYYCSSATQKPDVTVFGGGTKLTVLG | 61 | 19 | 80 | 149 | 69 | 90 | – | – | 0.066 | 46 | 0.086 | 39 | 0.074 | 50 | 79 | 251 | 86 | 62 | 31 | 0.141 | – |
| MOR12515 (antibody, human IgG1, lambda, V domains shown, Tested as IgG) VH: QVQLVQSGAEVKKPGASVKVSCKASGYTFTSYDIHWVRQAPGQGLEWMGRIDPYSGNTNYAQKFQGRVTMTRDTSISTAYMELSRLRSEDTAVYYCARGSFYTRDSYFDVWGQGTLVTVSS VL: DIALTQPASVSGSPGQSITISCTGTSSDVGTYNQVSWYQQHPGKAPKLMIYGVSKRPSGVSNRFSGSKSGNTASLTISGLQAEDEADYYCYSRDSPMDQVFGGGTKLTVLG | 71 | 365 | 71 | 674 | 76 | 278 | 1.5 | 0.72 | 0.87 | 26 | 1.09 | 36 | 0.278 | – | – | – | – | – | – | – | – |
| MOR12921 (antibody, human IgG1, lambda, V domains shown, Tested as IgG) VH: QVQLVQSGAEVKKPGASVKVSCKASGYTFTGYYMHWVRQAPGQGLEWMGDIDPHSGNAVYAQKFQGRVTMTRDTSISTAYMELSRLRSEDTAVYYCARGSFYTRDSYFDVWGQGTLVTVSS VL: DIALTQPASVSGSPGQSITISCTGTSSDVGTYNQVSWYQQHPGKAPKLMIYGVSKRPSGVSNRFSGSKSGNTASLTISGLQAEDEADYYCSSRDLIGHYVFGGGTKLTVLG | 65 | 418 | 79 | 1230 | 68 | 252 | 0.56 | 0.6 | 0.15 | 31 | 2.31 | 42 | 0.432 | – | – | – | – | – | – | – | Kd [7]: 0.69 nM |
| MOR13654 (antibody, human IgG1, lambda, V domains shown, Tested as IgG) VH: QVQLVQSGAEVKKPGASVKVSCKASGYTFTSYDIHWVRQAPGQGLEWMGRIDPYSGNTNYAQKFQGRVTMTRDTSISTAYMELSRLRSEDTAVYYCARGSFYTRDSYFDVWGQGTLVTVSS VL: DIALTQPASVSGSPGQSITISCTGTSSDVGTYNQVSWYQQHPGKAPKLMIYGVSKRPSGVSNRFSGSKSGNTASLTISGLQAEDEADYYCQSRGEYRPGWVFGGGTKLTVLG | 61 | 195 | 77 | 331 | 69 | 182 | – | – | 0.11 | – | – | 34 | 0.136 | 58 | 72 | 244 | 92 | 89 | 27 | 0.632 | BT-474 pAkt IC50 [6]: 142 pM |
| MOR13666 (antibody, human IgG1, lambda, V domains shown, Tested as IgG) VH: QVQLVQSGAEVKKPGASVKVSCKASGYTFTSYDIHWVRQAPGQGLEWMGRIDPYSGNTNYAQKFQGRVTMTRDTSISTAYMELSRLRSEDTAVYYCARGSFYTRDSYFDVWGQGTLVTVSS VL: DIALTQPASVSGSPGQSITISCTGTSSDVGTYNQVSWYQQHPGKAPKLMIYGVSKRPSGVSNRFSGSKSGNTASLTISGLQAEDEADYYCSTTTYSFHMVFGGGTKLTVLG | 65 | 420 | 73 | 168 | 69 | 166 | – | – | 0.15 | – | – | 39 | 0.87 | 50 | 72 | 49 | 90 | 78 | 31 | 1.12 | BT-474 pAkt IC50 [6]: 275 pM |
| MOR12603 (antibody, human IgG1, kappa, V domains shown, Tested as IgG) VH: QVQLVQSGAEVKKPGSSVKVSCKASGGTFSSYAISWVRQAPGQGLEWMGLIIPRYGKARYAQKFQGRVTITADESTSTAYMELSSLRSEDTAVYYCARNWPYYYMDFWGQGTLVTVSS VL: DIVLTQSPATLSLSPGERATLSCRASQNIVFNLAWYQQKPGQAPRLLIYDASNRATGVPARFSGSGSGTDFTLTISSLEPEDFAVYYCQQTKNRPPTFGQGTKVEIKR | 70 | 79 | 77 | 11 | 74 | 18 | 4.1 | 6.1 | 2 | 44 | 0.058 | 36 | 0.034 | 77 | – | – | 84 | 17 | 37 | 0.136 | Kd [7]: 11 nM; BT-474 pAkt IC50 [6]: 137 pM |
